The record followed here is PMC7875428.

Assay [1] addresses 6×His-tagged human DSG2 EC1-5 (amino acids A1-A553) from Expi293F GnTI- cells (human). Description: BLI; biotinylated DSG2 variants loaded on streptavidin biosensors (immobilized at 1 μg/mL); FimH^LD or FimH^Q133K in solution, 10 μM to 156 nM, 15 min association, 20 min dissociation; 10 mM HEPES pH 7.4, 150 mM NaCl, 1 mM CaCl2, 3 mM EDTA, 0.005% P20, 1% BSA, 25°C; Octet-Red96; global 1:1 fit with drifting baseline; apparent constants. In general terms: In BLI a coated tip is dipped into the sample, and binding shifts an interference pattern.

Assay [2] has as its target 6×His-tagged human DSG2 EC1-5 (amino acids A1-A553) from wild-type Expi293F cells (human). The assay is described as above.

For the substance “lectin domain of FimH (FimH^LD, amino acids F1-G160) (from UniProt P08191 22-181) (domain or fragment)”, the Kd was found to be 0.484 µM in assay [1] and 1.6 µM in assay [2].
